Results on 41 sequences are retold here after the nanobody polyreactivity screen of Harvey et al. (2022).

A short description of the series: yeast display, Sf9 membrane polyspecificity reagent, FACS + sequencing; frameworks hold sequencing errors. In short, it runs like this: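 Galactose induction of a Saccharomyces cerevisiae BJ5465 synthetic nanobody display library ran 36–48 hours. The cells were then stained for 1 hour at 4 °C with 10% biotinylated, detergent-solubilized Sf9 membrane reagent, pulled down on streptavidin microbeads and FACS-sorted into low and high (top ~1%) gates on expression and reagent-binding fluorescence. Labels for polyreactivity follow the gate of origin.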
Consider “QVQLVESGGGLVQAGGSLRLICAASGYTFSFYAMGWYIQAPGKERELVAAISRSGGSTYYADSVKGRFTISRDNAKNTVYLQMNSLKPEYTAVYYCAARWPGAYHEYGYWGQGTQVTVSS”, for which the “polyreactivity (PSR sort gate)” value was “high polyreactivity”.

With “QVQLVESGGGLVQAGGSLRLICAASGYTFYAYAMGWYRQAPGKERELVAAITSGSSTYYADSVKGRFTISRDNAKNTVYLQMNSLKQEDTAVYYCASRIRGWRLLTSYYWGQGTQVTVSS”, the “polyreactivity (PSR sort gate)” value is given as “low polyreactivity”.

For “QVQLVESGGGLVQAGGSLRLICAASVSTFRKYAMGRYRQAPGKEREFVAAISSSGGRTYYADSVKGRFTISRDNAKNTVYLQMNSLKPEDTAVYYCNAYFRYSYDYWGQGTQVTVSS”, the “polyreactivity (PSR sort gate)” value is listed as “high polyreactivity”.

With “QVQLVESGGGLVQAGGSLRLICAATGITLGYYAMGWYRQAPGKERELVAAISYRGGNTYYADSVKGRFTISRDNAKNTVYLQMNSLKPEDTAVYYCNADLGYESGWWSKYDYWGQGTQVTVSS”, the “polyreactivity (PSR sort gate)” value is listed as “low polyreactivity”.

As to “QVQLVESGGGLVQAGGSLRLICAATGRNFRYYAMGWYRQAAGKERQLVAAIRNGGSTYYADSVKGRFTISRDNAKNTVYLQMNSLKPEDTAVYYCAGRYNYVSHRGGDWGHGTQVTVSS”, the “polyreactivity (PSR sort gate)” value was “high polyreactivity”.

On to “QVQLVESGGGLVQAGGSLRLICAAYGSTFVTNVMGWYRQAPGKERELVAAISARGGSTYYADSVKGRFTISRDNAKNTVYLQMNSLKPEDTAVYYCNAVVRPWQSYYYWGQGTQVTVSS”, for which the “polyreactivity (PSR sort gate)” value is “high polyreactivity”.

“QVQLVESGGGLVQAGGSLRLICADSGLIFRWYAMGWYRQAPGKERELVAAISRRGGTTNYADSVKGRFTISRDNAKNTVYLQMNSLKPEDTAVYYCAVSGGFYWGQGTQVTVSS”: the “polyreactivity (PSR sort gate)” value is reported as “high polyreactivity”.

Consider “QVQLVESGGGLVQAGGSLRLICADSGRILGINAMGWYRQAPGKERELVAAISSGGSTYYADSVKGRFTISRDNAKNTVYLQMNSLKPEDTAVYYCNVGSYAGWSDHPRYGYWGQGTQVTVSS”, for which the “polyreactivity (PSR sort gate)” value is on record as “high polyreactivity”.

Regarding “QVQLVESGGGLVQAGGSLRLICADSGSIFDGNVMGWYRQAPGKERDLVAAISGARTNYADSVKGRFTISRDNAKNTVYLQMNSLKAEDTAVYYCNVLPVGSEYDYWGQGTQVTVST”, the “polyreactivity (PSR sort gate)” value is listed as “low polyreactivity”.

In the case of “QVQLVESGGGLVQAGGSLRLICDASGFTFGVYAMGWYRQAPGKETELVAAISTTVGSTYYADSVKGRFTISRDNAKNNVYLQLNRLKPEDTALYYCAAEYTGYLNYYIYEYWGQGTQVTVSS”, the “polyreactivity (PSR sort gate)” value was “low polyreactivity”.

As to “QVQLVESGGGLVQAGGSLRLICDASGRIFRSYAMGWYRQAPGKERELVAAINWRGGSTFYADSVKGRFTISRDNAKNTVYLQMNSLKPEDTAVYYCARRGYRQSGDYWGQGTQVTVSS”, the “polyreactivity (PSR sort gate)” value is reported as “low polyreactivity”.

In the case of “QVQLVESGGGLVQAGGSLRLICEASGFIFDDNAIGSYRQAPGKERELVAAITSGGGSTYYADSVKGRCTISRDYAKNTVYLHMNSLKPEDTAVYYCNAVPSQHDEFDYWGQGTQVTVSS”, the “polyreactivity (PSR sort gate)” value is on record as “low polyreactivity”.

Regarding “QVQLVESGGGLVQAGGSLRLIFAASGFTFGGYAMGWYRQGPGKERELVAGISYRGGSTYYADSVKGRFTISRDNAKNTVYLQMNSLKPEDTAVYYCAADRGYPGKVDYWGQGTQVTVSS”, the “polyreactivity (PSR sort gate)” value is given as “low polyreactivity”.

On to “QVQLVESGGGLVQAGGSLRLIFAASGIIFGRYPMGWYRPAPGKERELVAAITSGGSTSYADSVKGRFTISRDNAKNTVYLQMNSLKPEDTAVYYCAVVFVWGWPGYYWGQGTQVTVSS”, for which the “polyreactivity (PSR sort gate)” value is reported as “high polyreactivity”.

Take “QVQLVESGGGLVQAGGSLRLISAASGSIFAKYAMGWYRHAPGKERELVAAITGSGGSTYYADSVKGRFTISRDNAKNTVYLQMNSMKPEDPAVYYCAKRRPRYTYNYCGQGTQVTVSS”: the “polyreactivity (PSR sort gate)” value is recorded as “high polyreactivity”.

Consider “QVQLVESGGGLVQAGGSLRLISAASGSTFPPYSMGWYSQAPGKEWEVVADITRRGASTYYADSVKVRFTISRDNAKNTVYLQMNSLKPEDTAVYYCAARYYDQYYSGFDYWGQGTQVTVSS”, for which the “polyreactivity (PSR sort gate)” value is listed as “high polyreactivity”.

“QVQLVESGGGLVQAGGSLRLLCAASGFTFFRYAKGWYRQAPGKERELLATINWSGGRTYYADSVKGRFTISRDNAKNTVYLQMNSLKPEDTAVYYSNAYYPSSFWRMDYWGQGTQVTVSS”: the “polyreactivity (PSR sort gate)” value is given as “high polyreactivity”.

For the sequence “QVQLVESGGGLVQAGGSLRLNCAASGGIFAYNAMGWYRQAPGKEMELVAAITYGGGSTYYADSVKGRFTISRDNAKNTVYLQMNSLKPEDTAVYYCATRGHYHAFYYTYPRYDSWGQGTQVTVSS”, the “polyreactivity (PSR sort gate)” value is “low polyreactivity”.

With “QVQLVESGGGLVQAGGSLRLNCAASGRIFGYNDMGWSRQAPGKERELVAAIDYSAGSTYYADSVKGRFTISRDNAKNTVNLQMNSLKPEDTAVYYCNTDSESSLLSSRGYWGQGTQVTVSS”, the “polyreactivity (PSR sort gate)” value is “low polyreactivity”.

As to “QVQLVESGGGLVQAGGSLRLNCAASGRIFKYNTRGWYRQAPGKERQLVAAISLSTGSGGGTRYADSVKGRFTISRDNAKNTVYLKMNSLNPEDTAVYYCAARHRYTNEYDYWGQGTQVTVSS”, the “polyreactivity (PSR sort gate)” value was “low polyreactivity”.

As for “QVQLVESGGGLVQAGGSLRLNCAASGSIFDHYAMGWYRQAPGKERELVAAINIRTGYTYYADSVKGRFTISRDNAKNTVYLQMNSLKPEDTAVYYCNRVVRGFVRHLDYWGQGTQVTVSS”, the “polyreactivity (PSR sort gate)” value is given as “low polyreactivity”.

Take “QVQLVESGGGLVQAGGSLRLRCAAMGWYRQAPWKERELVAGITRDGNTYYADSVKGRFTISRDNAKNTVYLQMNSLKPEDTAVYYCAAKHPKKYSYWGQGTQVSVSS”: the “polyreactivity (PSR sort gate)” value was “low polyreactivity”.

For the sequence “QVQLVESGGGLVQAGGSLRLRCAASARIYDTYAMGWYRQAPGKERELVASISIDGSTYYADSVKGRFTISRDNAKNTVYLQMNSLKREDTAVYYCNADGRYYTVRFEYWGQGTQVTVSS”, the “polyreactivity (PSR sort gate)” value is listed as “low polyreactivity”.

With “QVQLVESGGGLVQAGGSLRLRCAASARTFAGYALGWYRQAPGKERELVAAITTGGSTKYADSVKGRFTISRDNAKNTVYLQMNSLKQEDTAVYYCAAESYYKYFNKYDYWGQGTQVTVSS”, the “polyreactivity (PSR sort gate)” value is “high polyreactivity”.

Turning to “QVQLVESGGGLVQAGGSLRLRCAASGFIFCQYSMGWYRQAPGKERELVAAITWGGTNTYYADSVKGRFTISRDNAKNTVYLQMNSLKPEDTAVYYCAADNSPFTGNLDYWGQGTQVTVSS”, the “polyreactivity (PSR sort gate)” value is recorded as “low polyreactivity”.

Turning to “QVQLVESGGGLVQAGGSLRLRCAASGFIFIFNAMGWYRQAPGKERELLAAIDTSDDSTYYADSVKGRFTISRDNAKNTVYLQMNSLYPEDTAVYYCAAEELSNYEYWGQGTQVSVSS”, the “polyreactivity (PSR sort gate)” value was “low polyreactivity”.

“QVQLVESGGGLVQAGGSLRLRCAASGFIFWMNAMGWYRQAPGKERELVAAISIGGRTNYADSVKGRFTISRDNSKNTVYLQMNSLKPEDTAVYYCNKDYRSVYKGGGFDYWGQGTQVTVST”: the “polyreactivity (PSR sort gate)” value was “low polyreactivity”.

On to “QVQLVESGGGLVQAGGSLRLRCAASGFISGYNTMGWYRQAAGKEMEFVAAISVSGGRTYYADSVKGRFTFSRDNAKNTVYLQMNSLKPEDTAVYYCAGRYWSWRSFKVDYWGQGTQVTVSS”, for which the “polyreactivity (PSR sort gate)” value is “high polyreactivity”.

On to “QVQLVESGGGLVQAGGSLRLRCAASGFNHKPMGCYRQAPGKERELVAAISYSAGSTYYADSVKGRFTISRDNAKNTVYLQMNSLKPEDTAVYYCDIRYNYFTGTLSRYYSNIYGYWGQGTQVTVSS”, for which the “polyreactivity (PSR sort gate)” value is “high polyreactivity”.

On to “QVQLVESGGGLVQAGGSLRLRCAASGFTFGYNAMGWYRQAPGKERELVAAIYFSDGITYYADSVKGRFTISRDNAKNTVYLQMNSLKPEDTAVYYCAADLYFEYEYWGQGTQVTVSS”, for which the “polyreactivity (PSR sort gate)” value is on record as “high polyreactivity”.

With “QVQLVESGGGLVQAGGSLRLRCAASGFTFPSYPMGWYRQAPGKEREVVAAISQRGGSTYYADSEKGRFTISRDNAKHTVYLQLNSLKPEDTAVYYCAALAPRTGRPTYGYWGQGTQVTVSS”, the “polyreactivity (PSR sort gate)” value is “low polyreactivity”.

With “QVQLVESGGGLVQAGGSLRLRCAASGFTIGANTMGWYRQAPGKEWELVASISASGGSTYYADSVKGRVTISRDNAKNTVYVQMNSLKPDDTAGYYCAARRYPGRTATYYSWGQGTQVTVSS”, the “polyreactivity (PSR sort gate)” value was “high polyreactivity”.

As to “QVQLVESGGGLVQAGGSLRLRCAASGGTFYPYALGWYRQAPGKESELVAAISTSGGITYYADSVKARFTISRDNAKNTVYLQMNSLKPEDTAVYYCAAPVAYRGSRNFIYRYNYWGQGTQVTVSS”, the “polyreactivity (PSR sort gate)” value is “high polyreactivity”.

In the case of “QVQLVESGGGLVQAGGSLRLRCAASGHIFRQYAMGWYRQAPGKERELVAAITSGGSTYYADSVKGRFTISRDNAKNTVYLEMNSLKPEDNAVYYCADKYFFSYRHGDYWGQGNQVTVSS”, the “polyreactivity (PSR sort gate)” value is listed as “low polyreactivity”.

On to “QVQLVESGGGLVQAGGSLRLRCAASGIIFDGNVMGWYSQAPGKEREFVASISISGGSTSYADSVKGRFTISRDNAKNTVYLQMNSLNPEDTAVYYCNTDVGYGRVWRWRYHGDYWGQGTQVTVSS”, for which the “polyreactivity (PSR sort gate)” value is on record as “low polyreactivity”.

For the sequence “QVQLVESGGGLVQAGGSLRLRCAASGIIIYDYAMGWYRQAPGKERELVAAISSTAVGTYYADSVKGRFTISRDNAKNTVYLQMNSLKPVDTAVYYCAAAVSPHSEGFGEYNYWGQGTQVTVSS”, the “polyreactivity (PSR sort gate)” value is “low polyreactivity”.

Turning to “QVQLVESGGGLVQAGGSLRLRCAASGLTFGVYPMGWYRQAPGKERELVAAISSSGGSTYYADSVKGRYTISRDYAKNTVYLHMNSLKPEDTAVYYCNAGRGTKYDYWGQGTQVTVSS”, the “polyreactivity (PSR sort gate)” value was “low polyreactivity”.

Turning to “QVQLVESGGGLVQAGGSLRLRCAASGLTFVYYAMGWYRQAPVKERELVAAITSGGSTYYADSVKGRFTISRDNAKNTVYLQMNSLKPEDTAVYYCAATYPGFYFLLDEYWGQGTQVTVSS”, the “polyreactivity (PSR sort gate)” value was “high polyreactivity”.

Turning to “QVQLVESGGGLVQAGGSLRLRCAASGNIFDDNAMGWYRQAPGKERELVAALTWTGGSTYYADSVKGRFTISRDNAKNTVYLQMNSLKAEYTAVYNCADYDYWGQGTQVTVSS”, the “polyreactivity (PSR sort gate)” value is recorded as “low polyreactivity”.

As to “QVQLVESGGGLVQAGGSLRLRCAASGNTFFGYDMGWYRQAPGKERELVAAISGSGGGTYYADSVKGRFTISRDNAMNTVYLQMNCLKPEDTAVYYCAADSPQTEGYWGEGTQVTVSS”, the “polyreactivity (PSR sort gate)” value is listed as “low polyreactivity”.

For “QVQLVESGGGLVQAGGSLRLRCAASGNTFGYYTMGWYRQAPAKESELVASIDSGGGTNYADSVKGRFTISRDNAKNTVYLQMNRLKPEDTAVYSCAAASPLYWVDDFESGWRYYYWGQGTQVTVSS”, the “polyreactivity (PSR sort gate)” value is on record as “low polyreactivity”.
